Data taken from patent CN116041496A.

Molecular target: H7N9亚型禽流感病毒血凝素(HA)，野生型病毒上 (H7N9亚型禽流感病毒)
Test: cell-based or functional assay

B1: H7N9-NeuAb (antibody, V domains shown)
VH: QVQLQQPRAELVMPGASVRMSCQASGYTFTDFWIHWVKQRPGQGLEWIGAIDTSDSYTTYNQNFRGKASLTVDESSSTAYMQLSSLTSEDSAVYYCARLDDGFYNYAMDYWGQGTSVTVSS
VL: NIMMTQSPSSLAVSAGEKVTLNCKSSQSVLNSSNQKNYLAWYQQRPGQSPKLLIYWASTREAGVPDRFTGSGSGTDFTLTISSVKAEDLAVYYCHQYLSSYTFGGGTKLKIK
- HI 终点浓度: 1.5 µg/mL
- HI效价: 512
- 中和 终点浓度: 0.15 µg/mL
- 中和效价: 5120
